Laboratory results published in patent publication US7192720.

Legend:
[1] = target: soluble rhTNFR-1 extracellular domain protein (human) (UniProt P19438); experiment: Western blot of soluble hTNFR probed with AF225 pre-mixed with 1:10 BAF225-3 : wild type T7 phage; plaque lift of recovered phage with AF225
[2] = target: soluble rhTNFR-1 extracellular domain protein (human) (UniProt P19438); experiment: Western blot of soluble hTNFR probed with AF225 pre-mixed with 1:10 BAF225-3 : wild type T7 phage; phage eluted from excised bands and titered

Chain of UniProt P19438 (P19438 30-211 limits assumed): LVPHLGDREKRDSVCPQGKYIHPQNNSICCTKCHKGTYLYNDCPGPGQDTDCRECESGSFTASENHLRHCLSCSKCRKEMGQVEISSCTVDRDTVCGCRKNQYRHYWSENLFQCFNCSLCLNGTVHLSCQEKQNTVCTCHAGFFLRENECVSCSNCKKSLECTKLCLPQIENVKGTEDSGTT

goat anti-hTNFR polyclonal antibody (AF225)
enrichment of target phage relative to negative phage [1]: 190 fold | percent of phage recovered from the TNFR band that were target phage [1]: 95% | fold more phage recovered from the TNFR band than from the negative control [2]: 100 fold
